Assay results reported in the nanobody polyreactivity screen of Harvey et al. (2022).

Assay: yeast display, Sf9 membrane polyspecificity reagent, FACS + sequencing; frameworks hold sequencing errors
How it was run: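 Genes from sorted yeast were amplified by colony PCR, read by MiSeq 2 × 250 sequencing and filtered on CDR length. These cells carried a synthetic nanobody library in Saccharomyces cerevisiae BJ5465 and were sorted by FACS into low and high (top ~1%) gates on anti-HA and streptavidin fluorescence. Polyreactivity is labelled according to the gate of origin.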

Sequence | polyreactivity (PSR sort gate)
QVQLVESGGGLVQAGGSLRLSCAASGSTFYFNAMGWYRQAPGKERELVAGIRYSGSSTYYADSVKGRFTISRDNAKNTVYLQMNSLKPEYTAVYYCAAERWWYTVRGYGYWGQGTQVTVSS | high polyreactivity
QVQLVESGGGLVQAGGSLRLSCAASGSTFYFNAMGWYRQAPGKERELVAGISSGGSTYYADSVKGRFTISRDNAKNTVYLQMNSLKPEDTAVYYCAADSDTFYYTGYDYDYWGQGTQVTVSS | low polyreactivity
QVQLVESGGGLVQAGGSLRLSCAASGSTFYGNAMGWYRQAPGKERELVAAISRGGGSTYYADSVKGRFTISRDNAKNTVYLQMNSLKPEDTAVYYCAATRYLHPWYYPYYYWGQGTQVTVSS | low polyreactivity
QVQLVESGGGLVQAGGSLRLSCAASGSTFYGNAMGWYRQAPGKERELVAAITWGDASTYYADSVKGRFTISRDNAKNTDYLQMNSLKPEDTAVYYCAVDESYGSSSDMDYWGQGTQVTVSS | low polyreactivity
QVQLVESGGGLVQAGGSLRLSCAASGSTFYGNAMVWYIQAPGKERELVAAIRWRGGRTYYADSVKGRFTNSRDNAKYTVYLKLNSLIPEDTAVYDCNALPGVSDTQYDRVGYWGQGTQVTVSS | high polyreactivity
QVQLVESGGGLVQAGGSLRLSCAASGSTFYGNAMVWYRQAPGKERELVARITTSGSTYYADSVKGRFTISRDNAKNTVYLQMNSLKPEDTAVYYCAKRGYGPSIRYYYWGHGTQVTVSS | high polyreactivity
QVQLVESGGGLVQAGGSLRLSCAASGSTFYGYAMGWYRQAPGKERELVAAISGGGSTNYADSVKGRFTISRDNAKNTVYLQMNSLKPEDTAVYYCAARTTVYRRYGRNYWGQGTQVTVSS | high polyreactivity
QVQLVESGGGLVQAGGSLRLSCAASGSTFYGYAMGWYRQAPGKERELVAAISSGGRTKYADSVKGRFTISRDTAKNTVYLQMNSLKPEDTAVYYCYVSYLVYRWKFGWSMDYWGQGTQVTLSS | low polyreactivity
QVQLVESGGGLVQAGGSLRLSCAASGSTFYGYAMGWYRQAPGKERELVAAISVRAGITYYADSVKGRFTISRDNAKNTVYLQMNSLKPEDTAVYYCAKDHWTTSYDEGDYWGQGTQVTVSS | low polyreactivity
QVQLVESGGGLVQAGGSLRLSCAASGSTFYGYAMGWYRQAPGKERELVAAISWSGASTYYADSVKGRFTISRDNAKNTVYLQMNSLKPDDTAVYYCNKRYRGYFNWPHGYWGQGTQVTVSS | high polyreactivity
QVQLVESGGGLVQAGGSLRLSCAASGSTFYGYAQGWYRQAPRKERELVAAISRTGTTNYADSVKGRFTISRDNAKNTVYLQMNSLKPEVTAVYYCNVRGYEVWYPLAYDYWGQGTQVTVSS | high polyreactivity
QVQLVESGGGLVQAGGSLRLSCAASGSTFYGYTMGWYRQAPGKERELVAAITSGDSTYYADSVKGRFTISRDNAKNTVYLQINSLKPEDTAVYYCATDWDVEYYWTEYYYWGQGTQVTVSS | high polyreactivity
QVQLVESGGGLVQAGGSLRLSCAASGSTFYHNAMGWYRQAPGKERELVAAITTSGGSTYYADSVKGRFTISRDNAKNTVYLQMNSLKPEDTAVYYCNVYRPYLAPYDYWGQGTQVTVSS | low polyreactivity
QVQLVESGGGLVQAGGSLRLSCAASGSTFYHNVMGWYLQAPGKERELVASIDTGDSTNYADSVKGRFTISRDNAKNTVYLQMNSLKPEDTAVYYCNADSYPALNKRGYDYWGQGTQVTVSS | low polyreactivity
QVQLVESGGGLVQAGGSLRLSCAASGSTFYINAMGWYRQAPGKERELVAAISWGGGSTYYADSVKGRFTISRDNAKNTVYLQMNSLKPEDTAVYYCAKLKGTQPNRYDYWGQGTQVTVSS | low polyreactivity
QVQLVESGGGLVQAGGSLRLSCAASGSTFYINAMGWYRQAPGKERVLVAAISWSGGSTYYADSVKGRFTISRDNAKNTVYLQMNSLKPEDTAVYYCAADWYLGWSLDYDYWGQGTQVTVSS | low polyreactivity
QVQLVESGGGLVQAGGSLRLSCAASGSTFYIYAMGWYRQAPGKERELVAAIDWNDGSTYYADSVKARFTISRDNAKNTVYLQMNSLKPEDTAVYYCAAAIYIYRGGTYDYWGQGTQVTVSS | high polyreactivity
QVQLVESGGGLVQAGGSLRLSCAASGSTFYIYAMGWYRQAPGKERELVAAISSVGRTSYADSVKGRFTISRDNAKNTVYLQMNSLKPEDTAVYYCAADKVDDSSYVPRTVFRYESDYWGQGTQVTVSS | low polyreactivity
QVQLVESGGGLVQAGGSLRLSCAASGSTFYIYAMGWYRQAPGKERELVAAITSRGTITSYADSVKGRFTISRDNAKNTVYLQMNSLKPEDTAVYYCAADYWQDGIAYWYDYWGQGTQVTVSS | low polyreactivity
QVQLVESGGGLVQAGGSLRLSCAASGSTFYIYAMGWYRQAPGKERELVAAITWRGGGTYYADSVKGRFTISRDNAKNTVYLQMNSLKPEDTAVYYCNADYPRSHYQYPYNYWGQGTQVTVSS | high polyreactivity
QVQLVESGGGLVQAGGSLRLSCAASGSTFYIYAMGWYRQAPGKERELVARISGSRGSTYYADSVKGRFTISRDNAKNTVYLQMNSLKPEDTAVYYCAADDIYKYYQYYALPSYRYDYWGQGTQVTVSS | low polyreactivity
QVQLVESGGGLVQAGGSLRLSCAASGSTFYIYGMGWYRQAPGKERELVAAISSSGGRTNYADSVKGRFTISRDNAKNTVYLQMNSLKPEDTAVYYCAARRWQGYAGWYDYWGQGTQVTVSS | high polyreactivity

Sequence | polyreactivity (PSR sort gate)
QVQLVESGGGLVQAGGSLRLSCAASGSTFYIYTMGWYRQAPGKERELVATISWDGGNTYYADSVKGRFTISRDNAKNTVYLQMNSLKPEDTAVYYCARDSSIWSHGSWYDYWGQGTQVTVSS | low polyreactivity
QVQLVESGGGLVQAGGSLRLSCAASGSTFYKNAMGWYIQAPGKERELVAAISGSGGRTYYADSVKGRFTISRDTAKNTVYLQMNSLKPEDTAVYYCNAARAYYSLYYGLDYWGQGTQVTVSS | high polyreactivity
QVQLVESGGGLVQAGGSLRLSCAASGSTFYKYAMGWYRPAPGKERELVATINISGGSTSYADSVKGRFTISRDNAKNTVYLQMNSLKPQDTAVYYSNADAFYLGHDYWGQGTEVTVSS | high polyreactivity
QVQLVESGGGLVQAGGSLRLSCAASGSTFYKYAMGWYRQAPGKERELVAAISASGGSTYYADSVKVRFTISRDNAKNTVYLQMNSLNPEDTAVYYCAKASAYSAYADHDYYWGQGTQVTVSS | high polyreactivity
QVQLVESGGGLVQAGGSLRLSCAASGSTFYLNALGGYRQAPGKEREFVAAIDTGTGTYYADSVKGRFTISRDNAKNTVYLQMNRLKPEDTAVYYCAKDDLLVVRNVWFDYWGQGTQVTVSS | low polyreactivity
QVQLVESGGGLVQAGGSLRLSCAASGSTFYLNAMGWYRQAPGKERELVAAINSGDSTNYADSVKGRFTISRDNAKNSVYLQMNSLKPEDNAVYYCARDRYPSEGDYWGQGTQVTVSS | low polyreactivity
QVQLVESGGGLVQAGGSLRLSCAASGSTFYLNAMGWYRQAPGKERELVASITWSGGRTYYADSVKGRFTISRDNAKNTVYLQMNSLKPEDTAVYYCAADPVWGRYIKYDYWGQGTQVTVSS | high polyreactivity
QVQLVESGGGLVQAGGSLRLSCAASGSTFYLNAMGWYRQEPGKERELVAAISSGGRTYYADSVKGRFTISRDNAKNTVYFQKNSLKPEDTAVYYCAATRLYWKIFYGDGDYWGQGTQVTVSS | high polyreactivity
QVQLVESGGGLVQAGGSLRLSCAASGSTFYLNTMGWYRQAPGKERELVASISRSGGTTYYADSVKGRFTISRDNAKNTVYLQMNSLKPEDTAVYYCAKRYYFTHAYSRTFYYWGQGTQVTVSS | high polyreactivity
QVQLVESGGGLVQAGGSLRLSCAASGSTFYLYAMGWYRQAPGKERELVAAISWSDDTTYYADSVKGRFTISRDNAKNTVYLQMNSLKPEDTAVYYCATVPHYYYDYDYWGQGTQVTVSS | low polyreactivity
QVQLVESGGGLVQAGGSLRLSCAASGSTFYLYAMGWYRQAPGKERELVAAITRGGTTNYADSVKGRFTISRDNAKNTVYLQMNSLKPEDTAVYYCAKEVTTLLSLYEIVDRDYWGQGTQVTVSS | low polyreactivity
QVQLVESGGGLVQAGGSLRLSCAASGSTFYLYPMGWLRQAPGKERELVAAIRQSGGSTYYADSVKGRFTISRDNAKNTVYLQMNSLKPEDTAVYYCAARPSYRLGQRYYYWGQGTQVTVSS | high polyreactivity
QVQLVESGGGLVQAGGSLRLSCAASGSTFYLYTMGWYIQAPGKERELVAAISPSGGSTRYADSVKGRFTISRDNAKNTVYLQMNSLKPEDTAVYYCAARSTVYPRPHERDYWGQGTQVTVSS | high polyreactivity
QVQLVESGGGLVQAGGSLRLSCAASGSTFYNNAMGWYRQAPGKERELVAAISNVSTYYADSVKGRFTISRDNAKNTVYLQMNSLKPEDTAVYYCAARGLLWYYSWRYYYWGQGTQVTVSS | low polyreactivity
QVQLVESGGGLVQAGGSLRLSCAASGSTFYNNAMGWYRQAPGKERELVAAISNVSTYYADSVKGRFTISRDNAKNTVYLQMNSLKPEDTAVYYCAARVLLWYYSWRYYYWGQGTQVTVSS | low polyreactivity
QVQLVESGGGLVQAGGSLRLSCAASGSTFYNNAMGWYRQAPGKERELVAAITASGGRTYYADSVKGRFTISRDNAKNTVYLQMNSLKPEDTAVYYCAADGHAGYPIDEYYYWGQGTQVTVSS | high polyreactivity
QVQLVESGGGLVQAGGSLRLSCAASGSTFYNNAMGWYRQAPGKERELVATISASSTSTYYADSVKGRFTISRDNAKNTVYLQMNSLKPEDTAVYYCAKDYVHGSTYGYYWYGYDYWAQGTQVTVSS | low polyreactivity
QVQLVESGGGLVQAGGSLRLSCAASGSTFYNYAMGWYRQAPGKERELVAAISIGGSTYYADSVKGRFTISRDNAKNTVYLQMNSLKPEDTAVYYCAADDGDFYPIDDYWGQGTQVTVSS | low polyreactivity
QVQLVESGGGLVQAGGSLRLSCAASGSTFYNYAMGWYRQAPGKERELVASITWNGGSTYYADSVKGRFTISRDNAKNTVYLQMNSLKPEDTAVYYCAAEWTWTYPYDYWGQGTQVTVSS | low polyreactivity
QVQLVESGGGLVQAGGSLRLSCAASGSTFYPNAMGWYRQAPGKERELVAAISRGTRTKYADSVKGRFTISRDNAKNTVYLQMNSLKPEDTAVYYCAADTGTGLDWGQGTQVTVSS | high polyreactivity
QVQLVESGGGLVQAGGSLRLSCAASGSTFYPNAMGWYRQAPGKERELVADISYSGGRTYYADSVKGRFTISRDNAKNTVYLQMNSLKPEYTAVYYCAARKVTYHYQWMDYWGQGTQVTVSS | low polyreactivity
